From the supplement of paper PMC12764529
± gives the half width of the 95% confidence interval.

What was measured:
[1] = folding stability dG unfold (combined trypsin and chymotrypsin); higher = more stable
Method in brief: (§1)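 Bayesian fitting of sequencing counts gave K50 for each design. Unfolding free energy followed by setting this against a sequence-predicted unfolded-state K50 and a shared folded-state K50, either per protease or with trypsin and chymotrypsin combined. The designs, under 80 residues and lacking cysteine, were digested in a PA-tagged cDNA display format at 11 threefold-diluted protease concentrations and without protease, and only those with AlphaFold2 dimer inter-PAE above 15 were kept.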

[2] = folding stability dG unfold from trypsin proteolysis; higher = more stable
Method in brief: as §1

[3] = folding stability dG unfold from chymotrypsin proteolysis; higher = more stable
Method in brief: as §1

Sequence	folding stability dG unfold [1] [kcal/mol]	folding stability dG unfold [2] [kcal/mol]	folding stability dG unfold [3] [kcal/mol]
SAGGSAGGSAGFFRVDIDIMMSPEMLDLMKKNPGLPPGQEIPIMVVIKREPVPYDPNGKLSAGGSAGGSAGG [r17_194_TrROS]	1.8 ± 0.051	1.375 ± 0.013	2.1 ± 0.043
SAGGSAGGSAGFKLPPGQEVVFQVSIKLPDGPTQTLEDLENMPPENIDFLEIEISWVPVDSAGGSAGGSAGG [r11_899_TrROS]	1.57 ± 0.2	1.09 ± 0.14	1.81 ± 0.12
SAGGSAGGSAGFKVPPGWKIVNTYRSPESGYPTAILRDPGDNKPLIFDFDNGKIMPAKDISAGGSAGGSAGG [r11_268_TrROS]	-0.178 ± 0.55	0.291 ± 0.11	-0.535 ± 0.69
SAGGSAGGSAGFNIRIVNVEITGNKLTIYLPNGWVITIKFNKNGNINMKIEDIKPLPPGASAGGSAGGSAGG [r17_173_TrROS]	3.61 ± 0.14	3.02 ± 0.16	3.98 ± 0.064
SAGGSAGGSAGGAEEIARKLAEETGKKVTIRIRLPNGEVYEIELDEPLEEIEGAEIVEIESAGGSAGGSAGG [r7_998_TrROS_Hall]	1.43 ± 0.061	0.639 ± 0.018	1.79 ± 0.036
SAGGSAGGSAGGAEELAKELAEKLGLEKKKVLIKLPNGKVVEVTIEDLKKLNLKNAEIVPSAGGSAGGSAGG [r7_863_TrROS_Hall]	0.786 ± 0.18	0.906 ± 0.052	0.492 ± 0.12
SAGGSAGGSAGGAIVTTTTTKAPVFAPDGTVVAEITTTTVTVILPETPPSLLPEVLERLASAGGSAGGSAGG [r7_450_JUSTAS]	0.681 ± 0.16	0.553 ± 0.06	0.801 ± 0.076
SAGGSAGGSAGGALLVTPTPDGYIARVKDPNSDSWTVVPLSPEELEELAAAGVPTVEVLPSAGGSAGGSAGG [r7_266_JUSTAS]	1.09 ± 0.16	-0.336 ± 0.32	1.46 ± 0.064
SAGGSAGGSAGGASLKVVEREVEYYDPETGETVRVKALVTVDPNSDKEILDPEEKEKLLSSAGGSAGGSAGG [r7_557_JUSTAS]	0.907 ± 0.087	1.02 ± 0.034	0.795 ± 0.016
SAGGSAGGSAGGAVTPETIELPDATITVYTYPEGVVVEVTDPETGQATVISPEEFERLLASAGGSAGGSAGG [r7_372_JUSTAS]	1.5 ± 0.057	1.78 ± 0.044	1.21 ± 0.034
SAGGSAGGSAGGDEEAIKEAAAAAPKDTTTVPVLLPDGKEVTLEVTWHPDGSRTITVRQSAGGSAGGSAGGS [r10_1017_JUSTAS]	1.15 ± 0.072	-0.0882 ± 0.15	1.6 ± 0.098
SAGGSAGGSAGGDERVEVFEFDAPGGYRVRLVDFGDLALVAFISPDGRPAVIPVPRELLSAGGSAGGSAGGS [r10_1075_TrMRF]	1.41 ± 0.044	0.529 ± 0.041	1.87 ± 0.035
SAGGSAGGSAGGDESYRKLLEELPLPVTEIVVETVPLPETDEPITVVTPKNPDGKEVTLGSAGGSAGGSAGG [r7_337_JUSTAS]	-0.284 ± 0.14	-0.0426 ± 0.037	-0.557 ± 0.084
SAGGSAGGSAGGDEVLVFETETVELEVEVRTLNEDGEETTEKEKVTLTVTRVVRLPPGLLSAGGSAGGSAGG [r7_926_TrROS_Hall]	0.959 ± 0.44	0.827 ± 0.083	1.15 ± 0.24
SAGGSAGGSAGGDKDDKPPVRTVTVMHMFFDENGWLVKFDITFTANGQIEIDWGPVPLPSAGGSAGGSAGGS [r10_682_TrROS]	3.52 ± 0.5	2.96 ± 0.3	3.8 ± 0.42
SAGGSAGGSAGGDKKDPGQPRQEVEIEIPVYDPNGKPKGPIEITMPAGQSLDEIADEIFNSAGGSAGGSAGG [r7_110_TrROS]	0.937 ± 0.13	0.758 ± 0.068	1.05 ± 0.049
SAGGSAGGSAGGDKNKPPKLKVKLKIEFPFTLPDGVKVRLEVEIDLDSDVIEPRAEVIDSSAGGSAGGSAGG [r7_213_TrMRF]	2.64 ± 0.081	1.76 ± 0.035	2.98 ± 0.086
SAGGSAGGSAGGDLVITEVRVEFDPKDGTLRVTARFELPNTGETVEVTLEFEIPYPDGASAGGSAGGSAGGS [r10_296_TrMRF]	2.85 ± 0.32	2.99 ± 0.35	2.86 ± 0.15

Sequence	folding stability dG unfold [1] [kcal/mol]	folding stability dG unfold [2] [kcal/mol]	folding stability dG unfold [3] [kcal/mol]
SAGGSAGGSAGGDNFEIEPDISWNPDYGYISIDWTVTIGGKEQPFTIMIPVRLPPPPEDDSAGGSAGGSAGG [r7_413_TrROS]	1.14 ± 0.22	1.41 ± 0.099	0.712 ± 0.15
SAGGSAGGSAGGDPKAKPKKYYLIDLNARLVGVEVDPETGELTVTYELEGATLTLRFEGSAGGSAGGSAGGS [r10_962_TrMRF]	2.65 ± 0.14	2.24 ± 0.1	2.78 ± 0.045
SAGGSAGGSAGGDPLPVTFTIPLEDDTTAKAVLSGDLVEVTIPNGKKYVLIPNPAVLGSSAGGSAGGSAGGS [r10_1176_TrMRF]	-0.216 ± 0.15	-0.144 ± 0.11	-0.232 ± 0.22
SAGGSAGGSAGGDPNDKPKEERRIKIKVRPTNVQRDPDNGMLWYSWRLEGLSITIMIPASAGGSAGGSAGGS [r10_962_TrROS]	2.85 ± 0.1	1.86 ± 0.08	3.43 ± 0.035
SAGGSAGGSAGGEDLKINIKISEITFSPDGWITMSMRGGNGRWFQHTIKVKIKLPPGDPSAGGSAGGSAGGS [r10_281_TrROS]	3 ± 0.12	2.77 ± 0.14	3.15 ± 0.038
SAGGSAGGSAGGEEEYVTLTIKVYDPKTREPVKEITIVLPKKNMTPEQLRELLKELGIEVSAGGSAGGSAGG [r7_903_TrROS_Hall]	2.98 ± 0.23	2.87 ± 0.12	3.01 ± 0.083
SAGGSAGGSAGGEEKEVYLVRFRRPDGSEVTVVAPWEDLEEIVKSLPEAVEVEVEKAPLSAGGSAGGSAGGS [r10_437_TrMRF]	1.98 ± 0.17	1.58 ± 0.042	2.22 ± 0.089
SAGGSAGGSAGGEIKVEVVPVDGKLRVKVTLEDGEKIEIEVPENTTLDELKKLAEELAKKSAGGSAGGSAGG [r7_265_TrROS_Hall]	1.94 ± 0.11	1.55 ± 0.083	2.12 ± 0.077
SAGGSAGGSAGGEKIIKVHPDNIEAFLKEAKEKGYKVILFPNGEAIVNGKKVKIISDPKSAGGSAGGSAGGS [r10_930_TrMRF]	1.74 ± 0.18	1.36 ± 0.12	1.73 ± 0.074
SAGGSAGGSAGGEKKWIFMVSFRHPDGKERKFTFPWNDLEEIKENLPGIDDVEIEWMPMSAGGSAGGSAGGS [r10_437_TrROS]	0.773 ± 0.19	-0.025 ± 0.2	0.961 ± 0.28
SAGGSAGGSAGGEKTIVISEEEAEKLAKELEKKGLTVERKPDGTLKVNGKEIRIIVVEPSAGGSAGGSAGGS [r10_930_TrROS_Hall]	0.814 ± 0.17	0.758 ± 0.077	0.858 ± 0.07
SAGGSAGGSAGGELKLLRIEVTGRAPYPTELLKTVEIVLPNEDVTEEQIRELLKELGIELSAGGSAGGSAGG [r7_903_TrMRF]	0.0188 ± 0.19	0.226 ± 0.046	-0.505 ± 0.26
SAGGSAGGSAGGELKLLSVEEGPNETYTVSSSDGKLTVYTKPPDGSWKSTSLPLEPELLSAGGSAGGSAGGS [r10_99_JUSTAS]	0.194 ± 0.1	-0.277 ± 0.057	0.317 ± 0.14
SAGGSAGGSAGGENNWMIFIEIKIEWEIKPTPDGKWKWEPEIEIKSIRIMPPNSPAAKDLSAGGSAGGSAGG [r7_889_TrROS]	2.6 ± 0.24	2.95 ± 0.18	2.51 ± 0.1
SAGGSAGGSAGGEPEVKVELRVELDEDGRLRVTLKVEFEDGTVERELELEAPVVFFPPEESAGGSAGGSAGG [r7_992_TrROS_Hall]	2.49 ± 0.16	2.73 ± 0.18	2.07 ± 0.093
SAGGSAGGSAGGEPIYIRINNYYIVINLDDGNIRVYPPMKGKKKKVPANDIKPIDPGDISAGGSAGGSAGGS [r10_709_TrROS]	1.07 ± 0.076	1.18 ± 0.025	0.813 ± 0.071
SAGGSAGGSAGGETIELKLPNGKVLRVEKDKEKGKTYKIYDTKTKKLVKTFKSKEALKKASAGGSAGGSAGG [r7_72_TrROS_Hall]	1.02 ± 0.11	0.755 ± 0.07	1.19 ± 0.17
SAGGSAGGSAGGETVVLVTYDKETKTLTVQTFELENGELKTTTKTVTLTDEQLESLPPASAGGSAGGSAGGS [r10_291_TrROS_Hall]	1.87 ± 0.18	1.39 ± 0.07	1.99 ± 0.083
